Molecular target: T1, XtrLin28b CSD (Xenopus tropicalis, UniProt B4F6I0 27-114)
T1 sequence: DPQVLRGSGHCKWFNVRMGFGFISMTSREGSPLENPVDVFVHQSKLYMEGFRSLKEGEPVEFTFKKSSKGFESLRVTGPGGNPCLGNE
Test: crystal structure

B1: rU6 (ssRNA)
RNA: UUUUUU
B1: binds.

From PMC3424542
